Experimental data from US20090155236.

T1: annexin V protein
T1 chain: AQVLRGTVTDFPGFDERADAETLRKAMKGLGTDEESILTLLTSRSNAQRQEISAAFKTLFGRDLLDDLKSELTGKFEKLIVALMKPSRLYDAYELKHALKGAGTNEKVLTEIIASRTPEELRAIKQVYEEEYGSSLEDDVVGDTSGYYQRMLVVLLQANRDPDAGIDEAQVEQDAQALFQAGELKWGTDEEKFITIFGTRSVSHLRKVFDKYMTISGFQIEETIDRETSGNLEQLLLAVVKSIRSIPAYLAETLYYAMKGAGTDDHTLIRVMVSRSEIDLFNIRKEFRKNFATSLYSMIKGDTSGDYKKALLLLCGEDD

B1: recombinant full-length delta PKC (protein)
chain: MAPFLRISFNSYELGSLQVEDEASQPFCAVKMKEALSTERGKTLVQKKPTMYPEWKTTFDAHIYEGRVIQIVLMRAAEDPVSEVTVGVSVLAERCKKNNGKAEFWLDLQPQAKVLMCVQYFLEDGDCKQSMRSEEEAKFPTMNRRGAIKQAKIHYIKNHEFIATFFGQPTFCSVCKEFVWQKQGYKCRQCNAAIHKKCIDKIIGRCTGTATNSRDTIFQKERFNIDMPHRFKVYNYMSPTFCDHCGSLLWGLVKQGLKCEDCGMNVHHKCREKVANLCGINQKLLAEALNQVTQRSSRKLDTTESVGIYQGFEKKPEVSGSDILDNNGTYGKIWEGSTRCTLENFTFQKVLGKGSFGKVLLAELKGKDKYFAIKCLKKDVVLIDDDVECTMVEKRVLALAWESPFLTHLICTFQTKDHLFFVMEFLNGGDLMFHIQDKGRFELYRATFYAAEIICGLQFLHSKGIIYRDLKLDNVMLDRDGHIKIADFGMCKENIFGEGRASTFCGTPDYIAPEILQGLKYSFSVDWWSFGVLLYEMLIGQSPFHGDDEDELFESIRVDTPHYPRWITKESKDIMEKLFERDPDKRLGVTGNIRIHPFFKTINWSLLEKRKVEPPFKPKVKSPSDYSNFDPEFLNEKPQLSFSDKNLIDSMDQEAFHGFSFVNPKFEQFLDI
B2: purified full-length epsilon PKC (protein)
chain: MVVFNGLLKIKICEAVSLKPTAWSLRHAVGPRPQTFLLDPYIALNVDDSRIGQTATKQKTNSPAWHDEFVTDVCNGRKIELAVFHDAPIGYDDFVANCTIQFEELLQNGSRHFEDWIDLEPEGRVYVIIDLSGSSGEAPKDNEERVFRERMRPRKRQGAVRRRVHQVNGHKFMATYLRQPTYCSHCRDFIWGVIGKQGYQCQVCTCVVHKRCHELIITKCAGLKKQETPDQVGSQRFSVNMPHKFGIHNYKVPTFCDHCGSLLWGLLRQGLQCKVCKMNVHRRCETNVAPNCGVDRIAKVLADLGVTPDKITNSGQRRKKLIAGAESPQPASGSSPSEEDRSKSAPTSPCDQEIKELENNIRKALSFDNRGEEHRAASSPDGQLMSPGENGEVRQGQAKRLGLDEFNFIKVLGKGSFGKVMLAELKGKDEVYAVKVLKKDVILQDDDVDCTMTEKRILALARKHPYLTQLYCCFQTKDRLFFVMEYVNGGDLMFQIQRSRKFDEPRSRFYAAEVTSALMFLHQHGVIYRDLKLDNILLDAEGHCKLADFGMCKEGILNGVTTTTFCGTPDYIAPEILQELEYGPSVDWWALGVLMYEMMAGQPPFEADNEDDLFESILHDDVLYPVWLSKEAVSILKAFMTKNPHKRLGCVASQNGEDAIKQHPFFKEIDWVLLEQKKIKPPFKPRIKTKRDVNNFDQDFTREEPVLTLVDEAIVKQINQEEFKGFSYFGEDLMP

Molecular target: T1, annexin V protein

Row | Protein | histone phosphorylation in an in vitro kinase reaction (SDS-PAGE, autoradiography)
1 | B1 | The addition of annexin V to delta PKC in the presence of PS/DAG (Lane 3) increases the catalytic activity of delta PKC
2 | B2 | annexin V does not increase the activity of epsilon PKC
